Source: patent publication US12146152B2, “Systems, methods, and compositions for correction of frameshift mutations” (Massachusetts Institute of Technology, priority 2019, dated 2024)

Key:
Format in all cases: cell-based
TPH2 exon 9 = assay: Indels editing in TPH2 gene using Cas9 and blunting enzymes; details: cultured mammalian cells, Cas9 + TPH2 sgRNA + blunting enzyme; for percentage of +1 insertion mutations: Cas9 and sgRNA alone 0%, FIGS. 14A-14H
Protocol: (§1) To test for the efficiency of inducing indels in a target gene using Cas9 and blunting enzymes, Cas9 and TPH2 targeting sgRNA were co-transferred into cultured mammalian cells in combination with POLM, EXOG, T4 polymerase, DNA polymerase λ (POLL), MGME1, RecJ exonuclease (RecJ) or Nuclease S1 (nucS). Cas9 and sgRNA alone served as the negative control. The occurrence of indels for the control and each of the combinations was measured.

PCSK9 exon 12 = assay: Indels editing in PCSK9 gene using Cas9 and blunting enzymes; details: HEK293T cells, Cas9 + PCSK9 exon 12 sgRNA + blunting enzyme; for percentage of +1 insertion: Cas9 and sgRNA alone 14.4%; for percentage of +1 insertion / percentage of −1 deletion: FIGS. 11A-11H; for percentage of −1 deletion: Cas9 and sgRNA alone 4.3%; for +1 insertion frequency: control 9.4%, FIGS. 12A-12B
Protocol: as §1, with “PCSK9 exon 12” for “TPH2”, “DNA polymerase μ (POLM),” for “POLM,”, “DNA polymerase (T4pol),” for “polymerase,”, “measured. HEK293T cells were used.” for “measured.”
Results for each of the combinations are presented in FIGS. 11A-11H and comparisons between the control and blunting enzymes are presented in FIGS. 12A-12B.

GYPB gene = assay: Indels editing in GYPB gene using Cas9 and blunting enzymes; details: cultured mammalian cells, Cas9 + GYPB sgRNA + blunting enzyme; for percentage of +1 insertion mutations: Cas9 and sgRNA alone 10.5%, FIGS. 13A-13H
Protocol: as §1, with “GYPB” for “TPH2”, “DNA polymerase μ (POLM),” for “POLM,”, “DNA polymerase (T4pol),” for “polymerase,”

POLM: DNA polymerase μ, DSB-end blunting enzyme co-transferred with Cas9 and sgRNA (AIYLVEPRMGRSRRAFLTGLARSKGFRVLDA)
percentage of +1 insertion mutations (TPH2 exon 9): 12.5%
percentage of +1 insertion (PCSK9 exon 12): 19.6%
percentage of +1 insertion mutations (GYPB gene): 13.7%

B1: RecJ: RecJ exonuclease, blunting enzyme co-transferred with Cas9 and sgRNA (protein)
chain: TVDNGISSHAGVEHARSLGIPVIVTDHHLPGDTLPAAEAIINPNLRDCNFPSKSLAGVGVAFYLMLALRTFLRDQGWFDERNIAIPNLAELLDLVALGTVADVVPLDANNRILTWQGMSRIRAGKCRPGIKALLEVANRDAQKLAASDLGFALGPRLNAAGRLDDMSVGVALLLCDNIGEARVLANELDALNQTRKEIEQGMQIEALTLCEKLERSRDTLPGGLAMYHPEWHQGVVGILASRIKERFHRPVIAFAPAGDGTLKGSGRSIQGLHMRDALERLDTLYPGMMLKFGGHAMAAGLSLEEDKFKLFQQRFGELVTEWLDPSLLQGEVVSDGPLSPAEMTMEVAQLLRDAGPWGQMFPEPLFDGHFRLLQQRLVGERHLKVMVEPVGGGPLLDGIAFNVDTALWPDNGVREVQLAYKLDINEFRGNRSLQIIIDNIWPI
percentage of −1 deletion (PCSK9 exon 12): 5.5%

B2: MGME1: single-strand DNA specific nuclease, blunting enzyme co-transferred with Cas9 and sgRNA (protein)
chain: LQQTMTKQQVFLLERWKQRMILELGEDGFKEYTSSFHVCDHVYMKNLARDVFLQGKRFHEALESILSPQETLKERDENLLKSGYIESVQHILKDVSGVRALESAVQHETLNYIGLLDCVAEYQGKLCVIDWKTSEKPKPFIQSTFDNPLQVVAYMGAMNHDTNYSFQVQCGLIVVAYKDGSPAHPHFMDAELCSQYWIKWLLRLEEYTEKKKNQNIQKPEYSE
percentage of −1 deletion (PCSK9 exon 12): 6.35%

B3: POLL: DNA polymerase λ, DSB-end blunting enzyme co-transferred with Cas9 and sgRNA (protein)
chain: CLQERRLVDVAGFSIFIPSRYLDHPQPSKAEQDASIPPGTHEALLQTALSPPPPPTRPVSPPQKAKEAPNTQAQPISDDEASDGEETQVSAADLEALISGHYPTSLEGDCEPSPAPAVLDKWVCAQPSSQKATNHNLHITEKLEVLAKAYSVQGDKWRALGYAKAINALKSFHKPVTSYQEACSIPGIGKRMAEKIIEILESGHLRKLDHISESVPVLELFSNIWGAGTKTAQMWYQQGFRSLEDIRSQASLTTQQAIGLKHYSDFLERMPREEATEIEQTVQKAAQAFNSGLLCVACGSYRRGKATCGDVDVLITHPDGRSHRGIFSRLLDSLRQEGFLTDDLVSQEENGQQQKYLGVCRLPGPGRRHRRLDIIVVPYSEFACALLYFTGSAHFNRSMRALAKTKGMSLSEHALSTAVVRNTHGCKVGPGRVLPTPTEKDVFRLLGLPYREPAERDW
percentage of +1 insertion mutations (TPH2 exon 9): 2.95%
percentage of +1 insertion (PCSK9 exon 12): 39.55%
+1 insertion frequency (PCSK9 exon 12): 35.0%
percentage of +1 insertion mutations (GYPB gene): 22.1%

B4: T4pol: T4 DNA polymerase, DSB-end blunting enzyme co-transferred with Cas9 and sgRNA (protein, UniProt P04415 1-898, looked up)
DNA-directed DNA polymerase: MKEFYISIETVGNNIVERYIDENGKERTREVEYLPTMFRHCKEESKYKDIYGKNCAPQKFPSMKDARDWMKRMEDIGLEALGMNDFKLAYISDTYGSEIVYDRKFVRVANCDIEVTGDKFPDPMKAEYEIDAITHYDSIDDRFYVFDLLNSMYGSVSKWDAKLAAKLDCEGGDEVPQEILDRVIYMPFDNERDMLMEYINLWEQKRPAIFTGWNIEGFDVPYIMNRVKMILGERSMKRFSPIGRVKSKLIQNMYGSKEIYSIDGVSILDYLDLYKKFAFTNLPSFSLESVAQHETKKGKLPYDGPINKLRETNHQRYISYNIIDVESVQAIDKIRGFIDLVLSMSYYAKMPFSGVMSPIKTWDAIIFNSLKGEHKVIPQQGSHVKQSFPGAFVFEPKPIARRYIMSFDLTSLYPSIIRQVNISPETIRGQFKVHPIHEYIAGTAPKPSDEYSCSPNGWMYDKHQEGIIPKEIAKVFFQRKDWKKKMFAEEMNAEAIKKIIMKGAGSCSTKPEVERYVKFSDDFLNELSNYTESVLNSLIEECEKAATLANTNQLNRKILINSLYGALGNIHFRYYDLRNATAITIFGQVGIQWIARKINEYLNKVCGTNDEDFIAAGDTDSVYVCVDKVIEKVGLDRFKEQNDLVEFMNQFGKKKMEPMIDVAYRELCDYMNNREHLMHMDREAISCPPLGSKGVGGFWKAKKRYALNVYDMEDKRFAEPHLKIMGMETQQSSTPKAVQEALEESIRRILQEGEESVQEYYKNFEKEYRQLDYKVIAEVKTANDIAKYDDKGWPGFKCPFHIRGVLTYRRAVSGLGVAPILDGNKVMVLPLREGNPFGDKCIAWPSGTELPKEIRSDVLSWIDHSTLFQKSFVKPLAGMCESAGMDYEEKASLDFLFG
percentage of −1 deletion mutations (TPH2 exon 9; Cas9 and sgRNA alone 13.2%, FIG. 14D): 36.7%
percentage of +1 insertion (PCSK9 exon 12): 36.75%
+1 insertion frequency (PCSK9 exon 12): 30.3%
percentage of −1 deletion mutations (GYPB gene; Cas9 and sgRNA alone 1.7%, FIG. 13D): 9.05%
percentage of +1 insertion mutations (GYPB gene): 13.4%

B5: EXOG: single-strand DNA specific nuclease, blunting enzyme co-transferred with Cas9 and sgRNA (protein)
chain: WSRGHMAPAGNNKFSSKAMAETFYLSNIVPQDFDNNSGYWNRIEMYCRELTERFEDVWVVSGPLTLPQTRGDGKKIVSYQVIGEDNVAVPSHLYKVILARRSSVSTEPLALGAFVVPNEAIGFQPQLTEFQVSLQDLEKLSGLVFFPHLDRTSDIRNICSVDTCKLLDFQEFTLYLSTRKIEGARSVLRLEKIMENLKNAEIEPDDYFMSRYEKKLEELKAKEQSGTQIRKPS
percentage of −1 deletion (PCSK9 exon 12): 5.05%
